According to paper PMC10530652 (BME Frontiers, 2021):

Assays:
MMP-2 = target: T1, MMP-2 (Homo sapiens, UniProt P08253); experiment: In vitro enzymatic validation of FIB One with recombinant MMP-2 (plate reader); type: biochemical; conditions: MMP 30 nM
T1 construct: recombinant MMPs (Enzo Life Sciences) (active domains of MMP-1, MMP-2, MMP-3, MMP-7, MMP-8, MMP-9, MMP-10, MMP-11, MMP-12, and MMP-13); purchased Enzo Life Sciences
Method: (§1) To determine the enzymatic specificity of FIB One, the probe was incubated at a concentration of 1 μM (unless otherwise stated) with the recombinant MMPs (Enzo Life Sciences) (active domains of MMP-1, MMP-2, MMP-3, MMP-7, MMP-8, MMP-9, MMP-10, MMP-11, MMP-12, and MMP-13, all at 30 nM), thrombin (Sigma Aldrich) (5 U/mL), factor Xa (Sigma Aldrich) (500 nM), plasmin (Sigma Aldrich) (30 nM), and human neutrophil elastase (30 nM). Where appropriate, enzymes were incubated with specific inhibitors for 30 min at 37°C prior to addition of FIB One. […] Enzyme free reactions served as a control. Enzymatic reactions were performed in MMP buffer (10 mM CaCl2, 6.1 g Tris-HCl, 8.6 g NaCl per litre, pH 7.5) in a final volume of 20 μL. Reactions were performed in duplicate in 384-well plates (Life Technologies) with optically clear plate seals (Thermo Scientific) and repeated thrice (independently). Fluorescence signal was measured for up to 60 min, ex/em 485/528 nm using microplate reader (BioTek Synergy H1 multimode reader). Data were normalised to buffer alone and are presented as fold-change in signal (relative fluorescent units, RFU) compared to enzyme-free controls. Data were plotted using Prism 7 (GraphPad Software Inc., La Jolla, CA, USA).

MMP-13 = target: T2, MMP-13 (Homo sapiens, UniProt P45452); experiment: In vitro enzymatic validation of FIB One with recombinant MMP-13 (plate reader); type: biochemical; conditions: MMP 30 nM
T2 construct: recombinant MMPs (Enzo Life Sciences) (active domains of MMP-1, MMP-2, MMP-3, MMP-7, MMP-8, MMP-9, MMP-10, MMP-11, MMP-12, and MMP-13); purchased Enzo Life Sciences
Method: as §1, with “Fluorescence signal was measured for up to 60 min, ex/em 485/528 nm using microplate reader (BioTek Synergy H1 multimode reader).” left out

[1] = test system: Salmonella typhimurium strain TA100; experiment: Reduced test article AMES test, TA100; type: cell-based; conditions: up to 250 μg/well, in the absence and presence of rat liver S-9
Method: These conditions included treatments at concentrations up to 250 μg/well (a 20-fold pro rata reduction from the standard regulatory Ames assay maximum concentration), in the absence and in the presence of a rat liver metabolic activation system (S-9).

patients = experiment: Clinical observations in patients after procedure; type: in vivo, human
Source text: Table S2: Clinical observations.

[2] = test system: MMP activity in the alveolar space; experiment: In vivo assessment of FIB One and AZD1236 with TLBC in patients; set-up: species or system human; conditions: 500 μL AZD1236 14 μg/mL predelivered, then 500 μL FIB One 20 μg/mL, nine patients
Method: In subsequent testing the Miniaturized Alveoflex™-TLBC combination replaced the Alveoflex™ fibre. The entire apparatus was passed transbronchially to allow direct alveolar imaging before localised delivery of agents. Once transbronchial pass was accomplished, baseline lung imaging was recorded for at least 30 sec. A 500 μL microdose of either AZD1236 (14 μg/mL) or sterile PBS (control) was administered under direct observation, and further imaging was obtained for >60 sec. 500 μL of FIB One (20 μg/mL) (delivered only after at least 60s to allow MMP inhibition) was then dosed to the same area with a further 90-120 sec of imaging captured. If considerable movement due to breathing or coughing was encountered, imaging was halted and a new segment identified. Up to 6 segments of interest were investigated per patient determined by patient tolerance.
All video sequences were assessed by two clinicians with clinical experience of pulmonary endomicroscopy. Frames with excessive movement or lack of recognizable alveolar structure were removed from analysis. Videos were assessed to ensure stability throughout the imaging procedure. […] All video files were analysed using the Cellvizio® Viewer image processing software from Mauna Kea Technologies, Paris. […] The median RFU was calculated for each category and used as a comparative value between groups.

Crl:WI(Han) rats = experiment: Single intratracheal administration toxicity study of AZD1236; type: in vivo, rat; conditions: 35 µg/animal (70 µg/mL)
Method: Assessment of toxicity of AZD1236 was based on clinical signs, body weight, food consumption, clinical and anatomic pathology evaluations. Complete necropsies were performed on all animals with a recording of macroscopic abnormalities for all tissues. Organ weights and microscopic examinations were conducted as indicated.

[3] = FIB One 1 μM, MMP buffer pH 7.5, ex/em 485/528 nm, fold-change vs enzyme-free control, n=3 in duplicate
[4] = AZD1236 0.11-14 µM, FIB One 1 µM

T1 sequence (P08253 110-446 limits assumed): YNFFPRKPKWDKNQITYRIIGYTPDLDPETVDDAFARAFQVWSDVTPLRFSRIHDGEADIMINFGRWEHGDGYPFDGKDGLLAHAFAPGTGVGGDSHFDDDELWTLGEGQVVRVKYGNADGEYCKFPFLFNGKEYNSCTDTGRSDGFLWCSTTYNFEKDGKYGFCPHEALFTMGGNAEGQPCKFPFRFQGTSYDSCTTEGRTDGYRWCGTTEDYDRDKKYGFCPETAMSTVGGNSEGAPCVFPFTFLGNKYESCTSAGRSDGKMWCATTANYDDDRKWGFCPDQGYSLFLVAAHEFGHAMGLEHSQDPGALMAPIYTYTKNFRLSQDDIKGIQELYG

(Pro-Phe-Gly-Nle-Lys-βAla)3 [FIB One]
fluorescent amplification of FIB One on exposure to enzyme (MMP-2; [3]): rapid and specific fluorescent amplification
fluorescent amplification of FIB One on exposure to enzyme (MMP-13; [3]): rapid and specific fluorescent amplification
signal amplification compared with analogous monomeric linear structure (FRET-monomer) (MMP-13; probes 1 µM, 10 min incubation, n=3 in duplicate): improved signal amplification
mutation induction [1]: did not induce mutation
Respiratory Rate (patients; Hour 1, mean (s.d.), baseline 16 (1)): 16 (2) bpm
Temperature (patients; Hour 1, mean (s.d.), baseline 36.6 (0.5)): 36.4 (0.4) C
Heart Rate (patients; Hour 1, mean (s.d.), baseline 76 (13)): 69 (13) bpm
Oxygen Saturations (patients; Hour 1, mean (s.d.), baseline 96 (1)): 97 (2) %
Systolic BP (patients; Hour 1, mean (s.d.), baseline 142 (22)): 124 (20) mmHg
Heart Rate (patients; Hour 2, mean (s.d.)): 67 (18) bpm
Oxygen Saturations (patients; Hour 2, mean (s.d.)): 97 (2) %
Respiratory Rate (patients; Hour 2, mean (s.d.)): 17 (1) bpm
Systolic BP (patients; Hour 2, mean (s.d.)): 124 (18) mmHg
Temperature (patients; Hour 2, mean (s.d.)): 36.4 (0.6) C
Heart Rate (patients; Hour 3, mean (s.d.)): 71 (12) bpm
Oxygen Saturations (patients; Hour 3, mean (s.d.)): 96 (2) %
Respiratory Rate (patients; Hour 3, mean (s.d.)): 16 (1) bpm
Systolic BP (patients; Hour 3, mean (s.d.)): 122 (32) mmHg
Temperature (patients; Hour 3, mean (s.d.)): 36.5 (0.4) C
Heart Rate (patients; Hour 4, mean (s.d.)): 77 (14) bpm
Oxygen Saturations (patients; Hour 4, mean (s.d.)): 96 (2) %
Respiratory Rate (patients; Hour 4, mean (s.d.)): 16 (1) bpm
Systolic BP (patients; Hour 4, mean (s.d.)): 125 (17) mmHg
Temperature (patients; Hour 4, mean (s.d.)): 36.8 (0.4) C
clinically significant variation of clinical observations (patients; between baseline and point of discharge from study (hour 4)): no clinically significant variation

AZD1236
inhibition of MMP (MMP-2; [4]): ability to inhibit
inhibition of MMP (MMP-13; [4]): ability to inhibit
drug-target engagement within the alveolar space [2]: in situ in vivo drug-target engagement
deaths, clinical signs, body weight, food consumption, clinical or anatomic pathology (Crl:WI(Han) rats): no deaths, no adverse clinical signs and no effects of treatment
tolerability, acute or delayed toxicity (Crl:WI(Han) rats): well tolerated with no evidence of acute or delayed toxicity
